{
  "source": "the supplement of paper PMC11316812",
  "key": {"[1]": {"test_system": "MCF7", "experiment": "percentage of EdU-negative (G0-arrested) nuclei per well, 72 h; higher = more G0 arrest", "conditions": "reference: sequence is the full UniProt precursor, the tested protein was the secreted form or ectodomain"}, "[2]": {"test_system": "hTERT-HMEC", "experiment": "percentage of EdU-negative (G0-arrested) nuclei per well, 72 h; higher = more G0 arrest", "conditions": "reference: sequence is the full UniProt precursor, the tested protein was the secreted form or ectodomain"}, "[3]": {"conditions": "protein concentration 0.0357143 µM"}, "[4]": {"conditions": "protein concentration 0.357143 µM"}, "[5]": {"conditions": "protein concentration 0.03125 µM"}, "[6]": {"conditions": "protein concentration 0.3125 µM"}, "[7]": {"conditions": "protein concentration 0.0257143 µM"}, "[8]": {"conditions": "protein concentration 0.257143 µM"}, "[9]": {"conditions": "protein concentration 0.026505 µM"}, "[10]": {"conditions": "protein concentration 0.26505 µM"}, "[11]": {"conditions": "protein concentration 0.02859 µM"}, "[12]": {"conditions": "protein concentration 0.2859 µM"}, "[13]": {"conditions": "protein concentration 0.01825 µM"}, "[14]": {"conditions": "protein concentration 0.1825 µM"}},
  "note": "± gives the standard deviation of the averaged measurements.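 Note: secreted proteins added to cultured cells, EdU pulse at the end, nuclei found by Hoechst imaging, EdU status from nuclear versus surrounding ring intensity ratio, PBS as neutral control.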",
  "data": [
    {"sequence": "MKRVLVLLLAVAFGHALERGRDYEKNKVCKEFSHLGKEDFTSLSLVLYSRKFPSGTFEQVSQLVKEVVSLTEACCAEGADPDCYDTRTSALSAKSCESNSPFPVHPGTAECCTKEGLERKLCMAALKHQPQEFPTYVEPTNDEICEAFRKDPKEYANQFMWEYSTNYGQAPLSLLVSYTKSYLSMVGSCCTSASPTVCFLKERLQLKHLSLLTTLSNRVCSQYAAYGEKKSRLSNLIKLAQKVPTADLEDVLPLAEDITNILSKCCESASEDCMAKELPEHTVKLCDNLSTKNSKFEDCCQEKTAMDVFVCTYFMPAAQLPELPDVELPTNKDVCDPGNTKVMDKYTFELSRRTHLPEVFLSKVLEPTLKSLGECCDVEDSTTCFNAKGPLLKKELSSFIDKGQELCADYSENTFTEYKKKLAERLKAKLPDATPTELAKLVNKHSDFASNCCSINSPPLYCDSEIDAELKNIL", "values": [
      {"measurement": "percentage of EdU-negative", "setting": "[1]; [3]", "result": "25.9 ± 0.66", "unit": "%"},
      {"measurement": "percentage of EdU-negative", "setting": "[1]; [4]", "result": "27.2 ± 1.1", "unit": "%"},
      {"measurement": "percentage of EdU-negative", "setting": "[2]; [3]", "result": "6.02 ± 1.8", "unit": "%"},
      {"measurement": "percentage of EdU-negative", "setting": "[2]; [4]", "result": "16.1 ± 0.49", "unit": "%"}
    ]},
    {"sequence": "MKSFLLVVNALALTLPFLAVEVQNQKQPACHENDERPFYQKTAPYVPMYYVPNSYPYYGTNLYQRRPAIAINNPYVPRTYYANPAVVRPHAQIPQRQYLPNSHPPTVVRRPNLHPSFIAIPPKKIQDKIIIPTINTIATVEPTPAPATEPTVDSVVTPEAFSESIITSTPETTTVAVTPPTA", "values": [
      {"measurement": "percentage of EdU-negative", "setting": "[1]; protein concentration 0.01 µM", "result": "24.6 ± 1.5", "unit": "%"},
      {"measurement": "percentage of EdU-negative", "setting": "[1]; protein concentration 0.1 µM", "result": "25.6 ± 1.9", "unit": "%"},
      {"measurement": "percentage of EdU-negative", "setting": "[2]; protein concentration 0.01 µM", "result": "5.78 ± 0.51", "unit": "%"},
      {"measurement": "percentage of EdU-negative", "setting": "[2]; protein concentration 0.1 µM", "result": "5.65 ± 0.83", "unit": "%"}
    ]},
    {"sequence": "MKSGLWYFFLFCLRIKVLTGEINGSANYEMFIFHNGGVQILCKYPDIVQQFKMQLLKGGQILCDLTKTKGSGNTVSIKSLKFCHSQLSNNSVSFFLYNLDHSHANYYFCNLSIFDPPPFKVTLTGGYLHIYESQLCCQLKFWLPIGCAAFVVVCILGCILICWLTKKKYSSSVHDPNGEYMFMRAVNTAKKSRLTDVTL [Q9Y6W8]", "values": [
      {"measurement": "percentage of EdU-negative", "setting": "[1]; [5]", "result": "25.2 ± 1.7", "unit": "%"},
      {"measurement": "percentage of EdU-negative", "setting": "[1]; [6]", "result": "25.9 ± 0.78", "unit": "%"},
      {"measurement": "percentage of EdU-negative", "setting": "[2]; [5]", "result": "4.29 ± 0.34", "unit": "%"},
      {"measurement": "percentage of EdU-negative", "setting": "[2]; [6]", "result": "4.32 ± 0.26", "unit": "%"}
    ]},
    {"sequence": "MKSLTWILGLWALAACFTPGESQRGPRGPYPPGPLAPPPPPCFPFGTGFVPPPHPPPYGPGRFPPPLSPPYGPGRIPPSPPPPYGPGRIQSHSLPPPYGPGYPQPPSQPRPYPPGPPFFPVNSPTDPALPTPAP", "values": [
      {"measurement": "percentage of EdU-negative", "setting": "[1]; [7]", "result": "22.6 ± 1", "unit": "%"},
      {"measurement": "percentage of EdU-negative", "setting": "[1]; [8]", "result": "26.45 ± 0.12", "unit": "%"},
      {"measurement": "percentage of EdU-negative", "setting": "[2]; [7]", "result": "5.63 ± 1.3", "unit": "%"},
      {"measurement": "percentage of EdU-negative", "setting": "[2]; [8]", "result": "7.43 ± 0.82", "unit": "%"}
    ]},
    {"sequence": "MKSLTWILGLWALAACFTPGESQRGPRGPYPPGPLAPPQPFGPGFVPPPPPPPYGPGRIPPPPPAPYGPGIFPPPPPQP", "values": [
      {"measurement": "percentage of EdU-negative", "setting": "[1]; [7]", "result": "26.1 ± 0.69", "unit": "%"},
      {"measurement": "percentage of EdU-negative", "setting": "[1]; [8]", "result": "29.6 ± 2.1", "unit": "%"},
      {"measurement": "percentage of EdU-negative", "setting": "[2]; [7]", "result": "5.18 ± 0.72", "unit": "%"},
      {"measurement": "percentage of EdU-negative", "setting": "[2]; [8]", "result": "6.25 ± 0.39", "unit": "%"}
    ]},
    {"sequence": "MKSLVLLLCLAQLWGCHSAPHGPGLIYRQPNCDDPETEEAALVAIDYINQNLPWGYKHTLNQIDEVKVWPQQPSGELFEIEIDTLETTCHVLDPTPVARCSVRQLKEHAVEGDCDFQLLKLDGKFSVVYAKCDSSPDSAEDVRKVCQDCPLLAPLNDTRVVHAAKAALAAFNAQNNGSNFQLEEISRAQLVPLPPSTYVEFTVSGTDCVAKEATEAAKCNLLAEKQYGFCKATLSEKLGGAEVAVTCMVFQTQPVSSQPQPEGANEAVPTPVVDPDAPPSPPLGAPGLPPAGSPPDSHVLLAAPPGHQLHRAHYDLRHTFMGVVSLGSPSGEVSHPRKTRTVVQPSVGAAAGPVVPPCPGRIRHFKV", "values": [
      {"measurement": "percentage of EdU-negative", "setting": "[1]; [9]", "result": "26.1 ± 1.4", "unit": "%"},
      {"measurement": "percentage of EdU-negative", "setting": "[1]; [10]", "result": "26.2 ± 2.4", "unit": "%"},
      {"measurement": "percentage of EdU-negative", "setting": "[2]; [9]", "result": "4.56 ± 0.2", "unit": "%"},
      {"measurement": "percentage of EdU-negative", "setting": "[2]; [10]", "result": "6.7 ± 0.16", "unit": "%"}
    ]},
    {"sequence": "MKSVLLLTTLLVPAHLVAAWSNNYAVDCPQHCDSSECKSSPRCKRTVLDDCGCCRVCAAGRGETCYRTVSGMDGMKCGPGLRCQPSNGEDPFGEEFGICKDCPYGTFGMDCRETCNCQSGICDRGTGKCLKFPFFQYSVTKSSNRFVSLTEHDMASGDGNIVREEVVKENAAGSPVMRKWLNPR [Q9NQ30]", "values": [
      {"measurement": "percentage of EdU-negative", "setting": "[1]; [11]", "result": "24.2 ± 1", "unit": "%"},
      {"measurement": "percentage of EdU-negative", "setting": "[1]; [12]", "result": "25.25 ± 0.057", "unit": "%"},
      {"measurement": "percentage of EdU-negative", "setting": "[2]; [11]", "result": "4.84 ± 1.4", "unit": "%"},
      {"measurement": "percentage of EdU-negative", "setting": "[2]; [12]", "result": "5.91 ± 0.64", "unit": "%"}
    ]},
    {"sequence": "MKTALILLSILGMACAFSMKNLHRRVKIEDSEENGVFKYRPRYYLYKHAYFYPHLKRFPVQGSSDSSEENGDDSSEEEEEEEETSNEGENNEESNEDEDSEAENTTLSATTLGYGEDATPGTGYTGLAAIQLPKKAGDITNKATKEKESDEEEEEEEEGNENEESEAEVDENEQGINGTSTNSTEAENGNGSSGGDNGEEGEEESVTGANAEDTTETGRQGKGTSKTTTSPNGGFEPTTPPQVYRTTSPPFGKTTTVEYEGEYEYTGANEYDNGYEIYESENGEPRGDNYRAYEDEYSYFKGQGYDGYDGQNYYHHQ", "values": [
      {"measurement": "percentage of EdU-negative", "setting": "[1]; [13]", "result": "21.2 ± 2.7", "unit": "%"},
      {"measurement": "percentage of EdU-negative", "setting": "[1]; [14]", "result": "24.2 ± 2.1", "unit": "%"},
      {"measurement": "percentage of EdU-negative", "setting": "[2]; [13]", "result": "5.184 ± 0.032", "unit": "%"},
      {"measurement": "percentage of EdU-negative", "setting": "[2]; [14]", "result": "5.29 ± 1.4", "unit": "%"}
    ]}
  ]
}
